# Source: publication PMC9352680, “A comprehensive thermodynamic model for RNA binding by the Saccharomyces cerevisiae Pumilio protein PUF4”
# T1: PUF4 RNA-binding domain (Saccharomyces cerevisiae, UniProt P25339 537-888)
# T1 sequence: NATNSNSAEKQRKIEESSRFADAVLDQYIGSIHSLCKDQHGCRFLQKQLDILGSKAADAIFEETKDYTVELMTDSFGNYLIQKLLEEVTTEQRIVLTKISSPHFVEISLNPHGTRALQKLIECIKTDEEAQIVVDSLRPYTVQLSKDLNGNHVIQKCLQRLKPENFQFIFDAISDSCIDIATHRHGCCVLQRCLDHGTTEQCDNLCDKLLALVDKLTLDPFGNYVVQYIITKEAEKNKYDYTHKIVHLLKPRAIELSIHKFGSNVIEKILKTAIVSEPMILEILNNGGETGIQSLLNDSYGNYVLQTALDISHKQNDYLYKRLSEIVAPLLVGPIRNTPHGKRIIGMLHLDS
# Molecular target: T1, PUF4 RNA-binding domain
# Test: Mg; RNA-MaP; 20 mM Na-HEPES pH 7.4, 30 mM KOAc, 0.75 mM MgCl2, 0.1% Tween-20, 5% glycerol, 0.1 mg/mL BSA, 2 mM DTT; 25 C; 0.0125-409.6 nM protein
# Details: tags: N-His6-TEV cleaved; C-SNAP kept, Cy3B-labelled; label: tethered on chip by stalled RNA polymerase
row,Binder,Kd
1,Ib_S2_P3E.1_K3.1_C3.1_H3.1_[G2C]_A3.1_F3.1_[A8C]_T3.1 (ssRNA) RNA: UUUGAUUAAUAUGAUAUCGUUCUUUCUUCUAUAUCUUCUUUCUCGAUAUCAUAUUAAUCUUU,> 2300 nM
2,Ib_S2_P3E.1_K3.1_C3.1_H3.1_[G2T]_A3.1_F3.1_[A8C]_T3.1 (ssRNA) RNA: UUUGAUUAAUAUGAUAUCGUUCUUUCUUUUAUAUCUUCUUUCUCGAUAUCAUAUUAAUCUUU,> 2300 nM
3,Ib_S2_P3E.1_K3.1_C3.1_H3.1_[G2C]_A3.1_F3.1_[A8T]_T3.1 (ssRNA) RNA: UUUGAUUAAUAUGAUAUCGUUCUUUCUUCUAUAUUUUCUUUCUCGAUAUCAUAUUAAUCUUU,1310 nM
4,Ib_S2_P3E.1_K3.1_C3.1_H3.1_[T3C]_A3.1_F3.1_[A8C]_T3.1 (ssRNA) RNA: UUUGAUUAAUAUGAUAUCGUUCUUUCUUGCAUAUCUUCUUUCUCGAUAUCAUAUUAAUCUUU,> 2300 nM
5,UCUCUUUGUAUUCUCUUAUUAUCUCUU (ssRNA) [Ie_S1_P5E.1_K5.1_C5.1_H5.1_A5.1_[+5TCTCT]_F5.1_T5.1],29.4 nM
6,UCUCUUUGUAUUAUCUCUUAUCUCUU (ssRNA) [Ie_S1_P5E.1_K5.1_C5.1_H5.1_A5.1_[+7TCTC]_F5.1_T5.1],22.2 nM
7,UCUCUUUGUAUUUCCUUAUUAUCUCUU (ssRNA) [Ie_S1_P5E.1_K5.1_C5.1_H5.1_A5.1_[+5TTCCT]_F5.1_T5.1],30.1 nM
8,UCUCUUUGUAUUACCUUAUCUCUU (ssRNA) [Ie_S1_P5E.1_K5.1_C5.1_H5.1_A5.1_[+7CC]_F5.1_T5.1],76.7 nM
9,UCUCUUUGUAUUUCUCUAUUAUCUCUU (ssRNA) [Ie_S1_P5E.1_K5.1_C5.1_H5.1_A5.1_[+6TCTCT]_F5.1_T5.1],30.9 nM
10,UCUCUUUGUACCUCUUUAUUAUCUCUU (ssRNA) [Ie_S1_P5E.1_K5.1_C5.1_H5.1_[+4CCTCT]_A5.1_F5.1_T5.1],35.4 nM
11,UCUCUUUGUAUUAUUCUUAUCUCUU (ssRNA) [Ie_S1_P5E.1_K5.1_C5.1_H5.1_A5.1_F5.1_[+8TCT]_T5.1],16.7 nM
12,UCUCUUUGUACCUUUAUUAUCUCUU (ssRNA) [Ie_S1_P5E.1_K5.1_C5.1_H5.1_[+4CCT]_A5.1_F5.1_T5.1],6.7 nM
13,UCUCUUUGUAUUAUCUUUAUCUCUU (ssRNA) [Ie_S1_P5E.1_K5.1_C5.1_H5.1_A5.1_F5.1_[+8CTT]_T5.1],19.2 nM
14,UCUCUUUGUCCCUAUUAUUAUCUCUU (ssRNA) [Ie_S1_P5E.1_K5.1_C5.1_H5.1_[+3CCCT]_A5.1_F5.1_T5.1],1100 nM
15,UCUCUUUGUUCUCUAUUAUUAUCUCUU (ssRNA) [Ie_S1_P5E.1_K5.1_C5.1_H5.1_[+3TCTCT]_A5.1_F5.1_T5.1],85.1 nM
16,UCUCUUUGUAUUAUCCUUAUCUCUU (ssRNA) [Ie_S1_P5E.1_K5.1_C5.1_H5.1_A5.1_F5.1_[+8CCT]_T5.1],20.7 nM
17,UCUCUUUGUAUUACCCUUAUCUCUU (ssRNA) [Ie_S1_P5E.1_K5.1_C5.1_H5.1_A5.1_[+7CCC]_F5.1_T5.1],209 nM
18,UCUCUUUGUAUUUUCCAUUAUCUCUU (ssRNA) [Ie_S1_P5E.1_K5.1_C5.1_H5.1_A5.1_[+6TTCC]_F5.1_T5.1],51.8 nM
19,UCUCUUUGUAUUCCUUUAUUAUCUCUU (ssRNA) [Ie_S1_P5E.1_K5.1_C5.1_H5.1_[+4TTCCT]_A5.1_F5.1_T5.1],48.5 nM
20,UCUCUUUGUACCCUUUUAUUAUCUCUU (ssRNA) [Ie_S1_P5E.1_K5.1_C5.1_H5.1_[+4CCCTT]_A5.1_F5.1_T5.1],42.3 nM
21,UCUCUUUGUAUUAUCUUAUCUCUU (ssRNA) [Ie_S1_P5E.1_K5.1_C5.1_H5.1_A5.1_[+7TC]_F5.1_T5.1],15.7 nM
22,UCUCUUUGUAUCCCUUUAUUAUCUCUU (ssRNA) [Ie_S1_P5E.1_K5.1_C5.1_H5.1_A5.1_[+5CCCTT]_F5.1_T5.1],60.4 nM
23,UCUCUUUGUAUUCUUAUUAUCUCUU (ssRNA) [Ie_S1_P5E.1_K5.1_C5.1_H5.1_A5.1_[+5TCT]_F5.1_T5.1],7.13 nM
24,UCUCUUUGUAUUCCCUAUUAUCUCUU (ssRNA) [Ie_S1_P5E.1_K5.1_C5.1_H5.1_A5.1_[+6CCCT]_F5.1_T5.1],32.4 nM

row,Binder,Kd
1,UCUCUUUGUAUUUUCCUAUUAUCUCUU (ssRNA) [Ie_S1_P5E.1_K5.1_C5.1_H5.1_A5.1_[+6TTCCT]_F5.1_T5.1],26.7 nM
2,UCUCUUUGUAUUAUUUUAUCUCUU (ssRNA) [Ie_S1_P5E.1_K5.1_C5.1_H5.1_A5.1_[+7TT]_F5.1_T5.1],15.6 nM
3,UCUCUUUGUAUCCUCUUAUUAUCUCUU (ssRNA) [Ie_S1_P5E.1_K5.1_C5.1_H5.1_A5.1_[+5CCTCT]_F5.1_T5.1],30.3 nM
4,UCUCUUUGUACUUUUAUUAUCUCUU (ssRNA) [Ie_S1_P5E.1_K5.1_C5.1_H5.1_[+4CTT]_A5.1_F5.1_T5.1],4.31 nM
5,UCUCUUUGUCCUCUAUUAUUAUCUCUU (ssRNA) [Ie_S1_P5E.1_K5.1_C5.1_H5.1_[+3CCTCT]_A5.1_F5.1_T5.1],397 nM
6,UCUCUUUGUAUUCCCAUUAUCUCUU (ssRNA) [Ie_S1_P5E.1_K5.1_C5.1_H5.1_A5.1_[+6CCC]_F5.1_T5.1],350 nM
7,UCUCUUUGUAUCUCUCUAUUAUCUCUU (ssRNA) [Ie_S1_P5E.1_K5.1_C5.1_H5.1_A5.1_[+5CTCTC]_F5.1_T5.1],36 nM
8,UCUCUUUGUACUCUUUAUUAUCUCUU (ssRNA) [Ie_S1_P5E.1_K5.1_C5.1_H5.1_[+4CTCT]_A5.1_F5.1_T5.1],13.1 nM
9,UCUCUUUGUCCCUUAUUAUUAUCUCUU (ssRNA) [Ie_S1_P5E.1_K5.1_C5.1_H5.1_[+3CCCTT]_A5.1_F5.1_T5.1],884 nM
10,UCUCUUUGUAUUAUUUUUAUCUCUU (ssRNA) [Ie_S1_P5E.1_K5.1_C5.1_H5.1_A5.1_F5.1_[+8TTT]_T5.1],13.4 nM
11,UCUCUUUGUAUUUUUAUUAUCUCUU (ssRNA) [Ie_S1_P5E.1_K5.1_C5.1_H5.1_A5.1_[+6TTT]_F5.1_T5.1],4.32 nM
12,UCUCUUUGUAUUACUUUAUCUCUU (ssRNA) [Ie_S1_P5E.1_K5.1_C5.1_H5.1_A5.1_[+7CT]_F5.1_T5.1],37.3 nM
13,UCUCUUUGUAUUAUUUAUCUCUU (ssRNA) [Ie_S1_P5E.1_K5.1_C5.1_H5.1_A5.1_F5.1_[+8T]_T5.1],8.84 nM
14,UCUCUUUGUUUCCUAUUAUUAUCUCUU (ssRNA) [Ie_S1_P5E.1_K5.1_C5.1_H5.1_[+3TTCCT]_A5.1_F5.1_T5.1],139 nM
15,UCUCUUUGUAUUCCUCUAUUAUCUCUU (ssRNA) [Ie_S1_P5E.1_K5.1_C5.1_H5.1_A5.1_[+6CCTCT]_F5.1_T5.1],66.2 nM
16,UCUCUUUGUAUUCCUCAUUAUCUCUU (ssRNA) [Ie_S1_P5E.1_K5.1_C5.1_H5.1_A5.1_[+6CCTC]_F5.1_T5.1],120 nM
17,UCUCUUUGUAUUACUCUUUAUCUCUU (ssRNA) [Ie_S1_P5E.1_K5.1_C5.1_H5.1_A5.1_[+7CTCT]_F5.1_T5.1],98.9 nM
18,UCUCUUUGUAUUACCUCUUAUCUCUU (ssRNA) [Ie_S1_P5E.1_K5.1_C5.1_H5.1_A5.1_[+7CCTC]_F5.1_T5.1],428 nM
19,UCUCUUUGUCUCUCAUUAUUAUCUCUU (ssRNA) [Ie_S1_P5E.1_K5.1_C5.1_H5.1_[+3CTCTC]_A5.1_F5.1_T5.1],1410 nM
20,UCUCUUUGUAUUUCUAUUAUCUCUU (ssRNA) [Ie_S1_P5E.1_K5.1_C5.1_H5.1_A5.1_[+5TTC]_F5.1_T5.1],6.57 nM
21,UCUCUUUGUAUUUUCAUUAUCUCUU (ssRNA) [Ie_S1_P5E.1_K5.1_C5.1_H5.1_A5.1_[+6TTC]_F5.1_T5.1],40.7 nM
22,UCUCUUUGUAUUCUCUCAUUAUCUCUU (ssRNA) [Ie_S1_P5E.1_K5.1_C5.1_H5.1_A5.1_[+6CTCTC]_F5.1_T5.1],84.4 nM
23,UCUCUUUGUAUCCUUAUUAUCUCUU (ssRNA) [Ie_S1_P5E.1_K5.1_C5.1_H5.1_[+4TCC]_A5.1_F5.1_T5.1],11 nM
